Experimental data from US20250241939A1, “NUCLEIC ACID-BASED DELIVERY SYSTEMS AND USES THEREOF” (Kodikaz Therapeutic Solutions, Inc., priority 2022, published 2025).

B1: 26 (nucleic acid, listed as Homo sapiens)
chain: AATTACAACAACCCTTAATATTTGTAAAGCGCTTGATAATTCAGGGAGGGCTTTTAAAAACTTCTATCCATCTCTTCCCCCCAGCAATCCTATGAGGTAGGCAGGGCTGGAATCATTTGCTGCATTTTATCGAATAGGAAGCCATGACTCGTAGAGGTCTGGTGACTTAACTGAGGTCACCCACTGAGGACGTGGCAGAGCTGGGTCCTGAATCTGTGGCCCTCAGGCTCTTTGCCTGGCCCTGCCTCACATAGACTACGCTGCCTCT
B2: 50 (nucleic acid, listed as Homo sapiens)
chain: CAGTCTTTCAGGACCAGAAGAGATGGATTTTAGGTTTTCCTTCCACTCAATGTATTCTATATGTACCCTAATCAACAAACATGCCTGGTTGTCACAGGTAGAAGGGGTCTCTACTCTGAATCATTCAGAGAAGAAATAATCATATTCTTTCGATGCTATCACTAACACAGGACCGTGATCCGAGACAACCAGGTTCAGTTCTTGATATGTAAAGGAATTTGGGAAAATATCATCTCTCACCACAAAATCTGTATTTTTATGTATATTTAAGCAAAATCCTGTTTTGGTCATCATTTTCTTTACCTTTCTTCTATATCCATCCTAATCTCCCTTTCAGC
B3: 52 (nucleic acid, listed as Homo sapiens)
chain: TCATCTCACAGAGTTAAACCTTTCTTTTGATTGAGCAGTTTTGAAACTCTCTTTTTGTAGAATCTACAAGTGGACATTGGGAGCTCTTTGAGGCCTATGTTAGAAAAGGAAATATCTTCACATAAAACCTAGATAGAGGCAATCTGAGAAACATCTTTGTGATGTGTGCATTCATCTCACGGAGTTAAACCTTTCTTTTCGTTGAGCAGTTTTTAAACTGTCTTTTTGTAGAATGTGCAAGTGGACATTTGGAGCGCTTTTTGTCCTATGGTGGGAAAGGAAGTATCTTCACATAAAAACTAGACCGAAGAATTCTGAGAAACTTCTTTGTGACGTGTACGTTCATCTCACTGAGTTGAACCTTTCTTTTGATTGAGCAGTTTGGAAACACTCTTTTTGTAGAATCTGCAAGTAGACATTTGGAGCGCTTTTCAGCCTACGGTAGAAAAGGAAATATCTTCACATCACAAAGAGAGAGTTTCAAAACTGCTCTATCAAAAGAAAGGTTTAACCCTGTGCGATGAATGCACATATCACAAAGAAGTTTCTCAGATTGCTTCTGTCTAGATTTTATGTGAAGATATTCCTTTTTCCACCATAGGCCTCAAAGCGCTCCAAATGTCCACTTGCAGATTCTACAAAAAGAGTGCTTCCAAACTGCTCGATGAAAAAAATGGTTCAACTCTGTGAGATGAATGCACGCATCACAAAGAAGTTTCTCAGAATTTTTCTATCTAGTATTTATTTGAAGATATTTCATTTTCCACCAT
B4: 55 (nucleic acid, listed as Homo sapiens)
chain: GCGGTGGCTCACGCTTGTAATCCCAGCACTTTGGGAGGCCGAGGTGGGCGGATCACGAGGTCAGGAGATCAAGACCACGGTGAAACCCCATCTCTACTAAAAATATAAAAAATTAGCCGGGCGTGGTGGTGGGCGCCTGTAATCCCAGCTACTCAGAGAGGCTGAGGCAGGAGAAGGGCGTGAACCCGGGAGGCGGAGCTTGTAGTGAGCTGAGATCGCGCCACTGCACTCCAGCACCCCAGCCTGGGTGACAGAGCGAGACTCCGTCTCAAAAAAATAATAATAATAATTAAATAAATAA
B5: 58 (nucleic acid, listed as Homo sapiens)
chain: TAGATGGAGGGGGAAAAACAGGGTGGGGAGCGGGAGGGAGGGAAGGTTTTGCAGAAAGACGGCGGTTAAAAAGTTTATGGGTAGATGGAGGGGGAAAAGAGGGTGGCAAGTGGGAGGAGGAAAGAGGGTGATAAGGGGGGGAAGTGGGGGTGAGCAGTAGGGAGAGAAGGTTTTGTGAAAAAAATGGGGAGAAAGGTTTTGGTTAGACGGGAGAAAAGAGGGTAACAAGTTGGGGAAGGAAAAAGAGGGTAGCTAGGAAGAAGACAAGGTTTTGCGAAAAGATAGCGGCCAGAAAAGAAAGACGGTGGAGAAAGGAAAGACGGTGGGTAAAAAGTGGGTAGATGGAGTGGGGAAAGAGGGT
B6: 61 (nucleic acid, listed as Homo sapiens)
chain: TATTTTTAAGCAAAGACTTAGAGAGAGAGAGGAAGTTAGCTATGCACATTGTGGGTGCGGTGTGGTTAGGGTGGCCCTGAGATAGGGATATGCCTGGTGTGTTTACGGAACAGCTAAGAGGCCAGGGAACTAGAGGAAATTGAGTGGGAAGGAGAAGAGTAGGAGATTAGTTTTGAAAAGCAAATGGTTTGGGAATATGGATCATGTAAGAGCACATGAGATTTTATAAGGATTTCATTTTACTCAGGGTGAAATGAAGAAGCACTAAAA
B7: 60 (nucleic acid, listed as Homo sapiens)
chain: ATTCAGAAGACAAATCTCACATGCAAAGACACACATAGGCTCAAAATAAGTGGATGGAGGAATATTTACCAAGCAAATGGCAAGCAAAAAGAAAAAGCAGGGGTTGCAATCCTAGTATCTGATAAAACAGGCTTTAAACCAAGAAAGATCAAAAAAGACAAAGAAGGTCATTACATAATGGTAAAGGGATCAATGCAACAAGAAGAGCTAACTATCCTAAATATATACGCACCCAATACAGGAGCACCCAGATTCATAAAGTAAATTCTTAGAGACTACAAAGAGACTTATACTCCCATACAATAATAGTGGGAGATTTTAACACCTCATTGTTGATATTAGATCAATGAGACAGAAAATTAACAAGGATATTCAGGACTTGAACTCAGCACTGGACAAAGCAGATTTAATAGACATCTACAGAACTCTCTACCTCAGATCAACAGAATATACATTCTTCTCAGCACCACATAGCACTTATTCTAAAATTGACCACATAATTGGAAGTAAAACACTCCTCAACGAATGCAAAAGAATGGAAATCATAACAAACAGTCTCTCAGACCACAGTGCAATCAAATTAGAACTCAGGATTACGAAACTTACTCAAAACTGCACAACTACATGGAAACTGAACAACCTGCTCCTGAACGACTACTGGGTAAATAATGAAATGAAGGCAGAAATAAATAAGTTTTTGAAACCAATGAGAACAAAGACACAACATACCAGAATCTCTGGGACACAGCTAAAACAGTG
B8: 67 (nucleic acid, listed as Homo sapiens)
chain: CCTTAATAGTTAATCTCCTATTAATAAGTAAGTGATTCTTTAATTAAACTTTCCTCATTCAAATGGCCATATGCTTTCTGTCTCTCGACTAGATGCTGAGTGATATACCCCCCA
modifications: listed as DNA, chemistry not fully specified
B9: MIRc (nucleic acid, listed as Homo sapiens)
DNA: B1 chain

Test system: MIA (pancreatic cancer) cell genome
Test: ctDNA coculture with MIA cells, whole genome sequencing: genomic insertion sites, transposons at insertion points and SNVs (pancreatic cancer)
Format: cell-based, human
Conditions: TABLE 4; gene at identified genomic insertion site
Description: The integration of ctDNAs into the host cell genome was evaluated. ctDNA was extracted from patient plasma, cultured for 24 hours with cells of a matching cancer cell type or non-matching cancer cell type, and whole genome sequencing was performed. The cell lines used were MM1s (multiple myeloma, MM) and MIA (pancreatic cancer, PC).
The sequence data was used to reconstruct genomic contigs for each experimental condition by de novo assembly. […] Coculture contigs carrying a ctDNA insertion were identified using NucDiff analysis.
Experiments were designed to identify the presence of transposons in ctDNA fragments. To map ctDNA genomic junctions more precisely, a PACBIO probe was ligated to multiple myeloma and pancreatic cancer ctDNA samples to label their 5′ and 3′ ends. Whole-genome sequencing of DNA from cells with ctDNA genomic integration was done using the Illumina platform. De novo assembly was performed on the sequencing output. ctDNA contigs containing PACBIO adaptor were then matched to those contigs containing inserted ctDNA sequences identified in the coculture experiments. Transposable element on ctDNA sequences at the insertion points (<100 nucleotides from transition point between cell and ctDNA) were detected and classified using RepeatMaster.
A search was conducted for transposons that preferentially target cells of matching tumor types. The lists of transposons identified at the ctDNA insertion point in matching and mismatched coculture conditions were compared (e.g., MM ctDNA with MM cells or PC cells). Transposons were selected that were uniquely or preferentially inserted in the matching conditions.
Whole-genome sequencing and Whole exon sequencing: ctDNA was extracted from 10 MM and 10 PC patients. DNA from CD138 (+) cells and from cell lines used in in vitro experiments (MM1s and MIA) was extracted using Blood & Cell Culture DNA Mini Kit (Quiagen, MD). DNA from […] paraffin embedded pancreatic tumors was obtained using QIAamp DNA FFPE Tissue Kit Print (Qiagen, MD).
After extraction, ctDNA was ligated to the PACBIO adaptor ([…]) using the ABM DNA Library Prep Kit for Illumina Sequencing (Applied Biological Materials Inc. Canada). PACBio-labeled ctDNA and regular ctDNA were subjected to standard methods for library preparation and sequencing using Illumina and Agilent protocols, respectively. Applied Biological Materials Inc. prepared the libraries and performed whole-exon and -genome sequencing.
Identification of transposable elements and its nucleotide variants: To determine the locations of transposable-like regions in contigs, sequences were analyzed and transposable elements (TEs) were identified and classified using RepeatMasker version 4.1.0 and the Dfam database (release 3.1) of repetitive DNA families was used as a reference for identifying repeats in ctDNA contig sequences that were part of qualifying structural events. For each repeat sequence identified by RepeatMasker, the overall frequency of the specific repeat (e.g., for AluSp or L1) and their parent class (e.g., SINE) was computed.
Once the TE elements were identified, hit repeats/TE sequences, unique contigs for all samples, and insertion sequence were aligned with MAFFT software version. Mutations in TE sequences were identified by comparison of nucleotides at each position in the multiple sequence alignment with the “Biostrings” R package (version 4.1). A position was considered to contain mutation if the substitution was present in contigs of all samples.

Molecule	Gene
B1	PPAC

Same assay, conditions: TABLE 4; identified genomic insertion site, chromosome

Molecule	Location
B2	Chr 7
B3	Chr 7
B4	Chr 14
B5	Chr 13
B1	Chr16
B6	Chr 14
B7	Chr 4
B8	Chr 19

Same assay, conditions: TABLE 4; number of single nucleotide variants (SNVs or SNPs) identified; polynucleotides for pancreatic cancer cells

Molecule	No. SNP
B2	3
B3	55
B4	1
B5	1
B1	0
B6	1
B7	1
B8	1

Same assay, conditions: TABLE 4; position on the chromosome of the identified genomic insertion site

Molecule	Chr location
B2	18828526
B3	57988111
B4	103067410
B5	19693028
B6	21413450
B7	36939485
B8	40372997

Same assay, conditions: TABLE 8; pancreatic cancer co-culture; BLAST alignment orientation

Molecule	blast orientation
B9	Plus/Plus

Same assay, conditions: TABLE 8; pancreatic cancer co-culture; chromosome with the longest result for BLAST analysis of the full contig

Molecule	blast chr
B9	chr16 and chr8

Same assay, conditions: TABLE 8; pancreatic cancer co-culture; compared with the human reference genome

Molecule	Transposon orientation
B9	direct

Same assay, conditions: TABLE 8; pancreatic cancer co-culture; location of the transposon relative to the insertion on the contig

Molecule	Location relative to insertion
B9	left
